This note sets out measurements from patent US20260234242A1 (HAINAN SIMCERE ZAIMING PHARMACEUTICAL, published 2026).

The target of assay [1] is T1, human CDH6 with EC3 removed, on HEK293T cells (HEK293T-hCDH6-EC3 deletion) (human, UniProt P55285 54-790).
T1 construct: Signal peptide not removed here
T1 sequence: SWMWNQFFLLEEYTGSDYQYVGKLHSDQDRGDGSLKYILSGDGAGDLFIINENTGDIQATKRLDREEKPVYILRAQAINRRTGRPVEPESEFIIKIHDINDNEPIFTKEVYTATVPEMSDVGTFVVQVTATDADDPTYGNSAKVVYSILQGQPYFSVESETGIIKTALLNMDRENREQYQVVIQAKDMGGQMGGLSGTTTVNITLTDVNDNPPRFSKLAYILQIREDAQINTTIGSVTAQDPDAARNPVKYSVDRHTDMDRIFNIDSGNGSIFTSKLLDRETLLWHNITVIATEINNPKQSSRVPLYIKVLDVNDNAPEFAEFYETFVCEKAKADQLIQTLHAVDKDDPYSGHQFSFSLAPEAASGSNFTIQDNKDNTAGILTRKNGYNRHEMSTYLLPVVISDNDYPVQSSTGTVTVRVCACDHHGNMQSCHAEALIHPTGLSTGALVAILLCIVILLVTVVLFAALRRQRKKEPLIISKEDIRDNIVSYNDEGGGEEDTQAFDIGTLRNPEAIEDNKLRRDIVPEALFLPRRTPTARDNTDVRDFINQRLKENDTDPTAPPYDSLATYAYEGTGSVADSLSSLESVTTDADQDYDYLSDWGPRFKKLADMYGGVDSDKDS
The experiment in a line: FACS, HEK293T-hCDH6-EC3 deletion cells. The text has this:
To confirm the binding epitope of the CDH6 antibody, the sequences after removal of these 5 regions were constructed into pcDNA3.1 vectors (purchased from Youbio, Cat. No. VT1001), and transfected into HEK293T cells (purchased from Cell Bank of Chinese Academy of Sciences, Cat. No. SCSP-502) to obtain 5 CDH6 truncated cell lines: HEK293T-hCDH6-EC1 deletion, HEK293T-hCDH6-EC2 deletion, HEK293T-hCDH6-EC3 deletion, HEK293T-hCDH6-EC4 deletion, and HEK293T-hCDH6-EC5 deletion.
The binding activity of the CDH6 chimeric antibodies to these 5 cell lines was assayed by FACS.
Background: In flow cytometry, cells or beads pass a laser one at a time.

The target in assay [2] is T2, monkey CDH6 protein (cynoCDH6 ECD-his) (monkey (cyno), UniProt A0A2K5TW62 19-615).
T2 construct: range 19-615; also called Cyno CDH6-his; not shown: his tag
T2 sequence: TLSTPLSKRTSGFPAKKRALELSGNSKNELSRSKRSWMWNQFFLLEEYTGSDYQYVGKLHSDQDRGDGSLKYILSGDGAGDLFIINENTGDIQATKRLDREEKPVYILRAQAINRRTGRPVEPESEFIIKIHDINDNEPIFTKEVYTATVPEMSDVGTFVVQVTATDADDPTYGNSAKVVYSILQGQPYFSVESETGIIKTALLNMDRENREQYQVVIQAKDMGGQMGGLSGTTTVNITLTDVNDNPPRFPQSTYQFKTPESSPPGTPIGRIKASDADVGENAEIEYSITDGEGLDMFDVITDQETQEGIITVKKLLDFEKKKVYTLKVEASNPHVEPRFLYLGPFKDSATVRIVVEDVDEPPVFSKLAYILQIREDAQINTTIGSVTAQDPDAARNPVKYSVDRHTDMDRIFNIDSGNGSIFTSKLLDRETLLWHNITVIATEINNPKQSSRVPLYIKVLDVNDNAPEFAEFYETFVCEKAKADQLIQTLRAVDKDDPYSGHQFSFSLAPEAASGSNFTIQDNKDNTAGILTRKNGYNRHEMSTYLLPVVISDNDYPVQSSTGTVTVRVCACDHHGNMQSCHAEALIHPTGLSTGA
The experiment in a line: ELISA, coated antigen. As for the experimental part: Human CDH6 protein (hCDH6 ECD-his, conventionally synthesized), monkey CDH6 protein (cynoCDH6 ECD-his, conventionally synthesized; the cynoCDH6 ECD sequence was derived from Uniprot #A0A2K5TW62 (19-615)), and murine CDH6 protein (mCDH6 ECD-his, conventionally synthesized; the mCDH6 ECD sequence was derived from Uniprot #P97326 (19-615)) were diluted with PBS to a final concentration of 1 μg/mL, and added to a 96-well ELISA plate at 100 μL/well. The plate was incubated at 4° C. overnight. The next day, the plate was washed 3 times with a plate washing solution (PBS+0.01% (v/v) Tween 20), and a blocking buffer (PBS+0.01% (v/v) Tween 20+2% (w/w) BSA) was added for blocking at room temperature for 2 h. The blocking buffer was discarded, and the plate was washed 3 times. The chimeric antibodies were diluted with 1% BSA+PBS (purchased from Cytiva, Cat. No. SH30264.01) and added to the 96-well plate at 50 μL/well. After incubation at 37° C. for 2 h, the plate was washed 3 times with a plate washing solution. […] The plate was incubated at 37° C. for 1 h and then washed 5 times with a plate washing solution. A TMB substrate (purchased from Seracare, Cat. No. 5120-0077) was added at 50 μL/well and incubated at room temperature for 10 min, then a stop solution (1.0 N HCl) was added at 50 μL/well. OD450 nm values were read using a microplate reader (Biotek). Analysis was performed by the GraphPad Prism software, data were fitted, and EC50 values were calculated. The chimeric antibodies tested all had strong binding to the human CDH6 protein, the monkey CDH6 protein, and the murine CDH6 protein.
(An ELISA detects its analyte on a solid surface through an enzyme-linked reagent.)

For assay [3], the target named is T3, human CDH6 with EC1 removed, on HEK293T cells (HEK293T-hCDH6-EC1 deletion) (human, UniProt P55285 160-790).
T3 construct: Signal peptide not removed here
T3 sequence: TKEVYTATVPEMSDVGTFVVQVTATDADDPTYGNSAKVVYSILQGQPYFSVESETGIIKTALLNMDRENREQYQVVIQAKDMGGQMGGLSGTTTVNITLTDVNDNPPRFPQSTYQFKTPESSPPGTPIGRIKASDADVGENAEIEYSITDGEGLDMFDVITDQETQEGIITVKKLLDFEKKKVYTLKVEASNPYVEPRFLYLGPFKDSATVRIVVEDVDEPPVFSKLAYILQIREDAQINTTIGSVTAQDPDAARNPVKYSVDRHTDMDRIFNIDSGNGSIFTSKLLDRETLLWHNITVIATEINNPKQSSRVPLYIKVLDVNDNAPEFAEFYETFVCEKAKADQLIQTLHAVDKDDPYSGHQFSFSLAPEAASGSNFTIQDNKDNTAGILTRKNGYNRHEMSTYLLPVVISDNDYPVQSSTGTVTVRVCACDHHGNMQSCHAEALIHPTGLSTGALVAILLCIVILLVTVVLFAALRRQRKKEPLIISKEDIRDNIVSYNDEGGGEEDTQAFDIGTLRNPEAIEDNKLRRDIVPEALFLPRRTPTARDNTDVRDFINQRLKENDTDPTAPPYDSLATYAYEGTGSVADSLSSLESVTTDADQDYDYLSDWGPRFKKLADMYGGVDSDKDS
The experiment in a line: FACS, HEK293T-hCDH6-EC1 deletion cells.

B1: CHI-CDH6-14 (antibody, human IgG1, kappa, V domains shown)
VH: QIQLQQSGPELVKPGTSVKISCKASGYTFTDNYINWVRQRPGQGLEWIGWIYPGTGNSYYNEKFKGKATLTVDTSSSTAYMQFSSLTSEDSAVYLCASSYGDSFDYWGQGTTLTVSS
VL: DIQMTQTTSSLSASLGNRVTISCRASQDIRNYLNWYQQKPDGTFKLLISYTSRLHSGVPSRFSGSGSGTDYSLTVSNLEPEDIATYYCQQYSQLPWTFGGGSRLEIKR
notes: also called CHI-hCDH6-14; CH1-CDH6-14
A word on the EC50: it is the concentration needed to bring the measured effect to its halfway point. In the case of B1, the “Max MFI” value in assay [1] was 755 MFI. In addition, in assay [2], the EC50 was 0.039 nM and the “Max OD450” value is 2.55 OD450. In assay [3], the “Max MFI” value amounted to 7210 MFI.

B2: DS-H01L02 (antibody, human IgG1, kappa, V domains shown)
VH: EVQLVQSGAEVKKPGASVKVSCKASGYTFTRNFMHWVRQAPGQGLEWMGWIYPGDGETEYAQKFQGRVTITADTSTSTAYMELSSLRSEDTAVYYCARGVYGGFAGGYFDFWGQGTLVTVSS
VL: DIQMTQSPSSLSASVGDRVTITCKASQNIYKNLAWYQQKPGKAPKLLIYDANTLQTGVPSRFSGSGSGSDFTLTISSLQPEDFATYFCQQYYSGWAFGQGTKVEIKR
notes: Positive control, variable regions from WO2018212136A1; also called positive control anti-human CDH6 antibody
Turning to B2, the binding result in assay [1] is “no binding (tested: MFI ~1.5 times that of hIgG1 (65))”. In addition, in assay [2], the EC50 amounted to 0.103 nM and the “Max OD450” value stood at 2.18 OD450. Further, the “Max MFI” value in assay [3] was 5290 MFI.

B3: CHI-CDH6-5 (antibody, human IgG1, kappa, V domains shown)
VH: QVQLQQSGAELVRPGTSVKMSCKAAEYTFTNYWIGWVKQRPGHGLEWIGDLYPGGDHANYNEKFEGKATLTADTSSSTAYMQLSSLTSEDSAIYYCARGMLTTGFDSWGQGTTLTVSS
VL: DIVMSQSPSSLAVSAGEKVTMSCKSSQSLFNSRTRKNYLAWYQQKPGQSPKLLIYWASTRESGVPDRFTGSGSGTDFTLTISSVQAEDLAVYYCKQSYYLRTFGGGTKLEIKR
notes: also called CH1-CDH6-5; chimeric antibody of murine CDH6-5
Take B3: the “Max MFI” value in assay [1] is 12200 MFI. In addition, in assay [2], the EC50 was found to be 0.046 nM and the “Max OD450” value worked out at 1.96 OD450. In addition, the “Max MFI” value in assay [3] came to 112 MFI.

B4: CHI-CDH6-7 (antibody, human IgG1, kappa, V domains shown)
VH: EVKLVESGGGLVKPGGSLKVSCAASGFTFSDHGMAWVRQAPGKGPEWVAFISNLAYSIYYADTVTGRFTISRENAKNTLYLEMSSLRSEDTAMYYCARVYVKWYFDVWGAGTTVTVSS
VL: DIQMTQSPASLSASVGETVTITCRASENIDSYLAWYQQKQGKSPQLLVFAATLLADGVPSRFSGSGSGTQYSLKINSLQSEDVARYYCQHYYSTPLTFGAGTKLELKR
notes: also called CH1-CDH6-7; chimeric antibody of murine CDH6-7
For B4, in assay [1], the “Max MFI” value amounted to 9060 MFI. In addition, in assay [2], the midpoint of the response, the EC50, lay at 0.178 nM and the “Max OD450” value worked out at 2.05 OD450. Also, the “Max MFI” value in assay [3] was determined as 88 MFI.

B5: CHI-CDH6-12 (antibody, human IgG1, kappa, V domains shown)
VH: EVNLVESGGGLVQPGDSLTLSCSASGFTFTDYYMSWVRQFPGKALEWLALIRNKANSYTTEYSASVKGRFTISRDNSQSILYLQMNALRAEDSATYYCARDSYYSHDGFAYWGQGTLVTVSA
VL: DIVLTQSPASLAVSLGQRATISCRASKSVSTSSYTYMHWYQQKPGQPPKLLIKFASYLESGVPARFSGSGSGTDFTLNIHPVEEEDAATYYCQHSREFPFTFGTGTKLEIKR
notes: also called CH1-CDH6-12; chimeric antibody of murine CDH6-12
B5: the “Max MFI” value in assay [1] was determined as 70 MFI. For the same molecule, in assay [2], the response was half-maximal at 0.044 nM (EC50) and the “Max OD450” value is 2.45 OD450. Besides, in assay [3], the “Max MFI” value was 9860 MFI.

B6: NOV0712 (antibody, human IgG1, kappa, V domains shown)
VH: QVQLLESGGGLVQPGGSLRLSCAASGFTFSSHGMHWVRQAPGKGLEWVSVISGSGSNTGYADSVKGRFTISRDNSKNTLYLQMNSLRAEDTAVYYCARQWGSYAFDSWGQGTLVTVSS
VL: DIQMTQSPSSLSASVGDRVTITCRASQSISSYLNWYQQKPGKAPKLLIYAVSTLQSGVPSRFSGSGSGTDFTLTISSLQPEDFATYYCQQSGTFPPTTFGQGTKVEIKR
notes: as for B2
Consider B6, for which the “Max MFI” value in assay [1] turned out to be 16300 MFI. In assay [2], the EC50 was 0.039 nM and the “Max OD450” value came out at 2.44 OD450. In addition, in assay [3], the “Max MFI” value was 23600 MFI.
